For assay [1], the target named is T1, DLC-1 peptide (nonphosphorylated) (Homo sapiens).
T1 chain: CSRLSIYDNVPG
Briefly: SPR. Background: SPR reads the build-up and loss of mass on a sensor chip optically.

For assay [2], the target named is T2, DLC-1 peptide (pY442) (Homo sapiens).
T2 chain: CSRLSI[pY]DNVPG
Briefly: SPR.

Where no end group is shown, it is not given here. [ ]: non-standard residue; d: D form. pY = N[C@@H](Cc1ccc(OP(=O)(O)O)cc1)C(=O)O

B1: Tensin2 SH2 domain 1135-1248 (protein)
chain: DTSKFWYKPHLSRDQAIALLKDKDPGAFLIRDSHSFQGAYGLALKVATPPPSAQPWKGDPVEQLVRHFLIETGPKGVKIKGCPSEPYFGSLSALVSQHSISPISLPCCLRIPSK
As a reminder, the Kd is the constant that tells how readily two partners part at equilibrium. The low end stands for a tighter complex, the high end for a looser complex. As for B1, the Kd in assay [1] is approximately 248 nM; in assay [2] it was approximately 31 nM.

Source of the values: PMC3134462 (2011).
